The supplement of paper PMC6757056
± gives the standard deviation of the averaged measurements.

B1: library; a variant is named by its letters at N, in order (parent)
chain: GCUGUCACCGAGAAACUGUGAAGUAUAUCUUAAACCUGGGCACUUAAAAGAUAUAUGGAGUUAGUAGUGCAACCUGCUCGGUCUGAUGAGUCCNNNNNNGGACGAAACAGC

Assays:
cyclic di-GMP [1] = variants of: B1; test: normalized RNA/DNA level without ligand (relative to sTRSVctl = 100) (log10 (% of sTRSVctl)); HEK293T; ligand: cyclic di-GMP (c-di-GMP-II aptamer); higher = less ribozyme self-cleavage, higher mRNA level; conditions: reporter: mCherry (pCS4076), ligand present: no
Summary of the method: (§1)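 For each 6-well well, 4 µg of library plasmid encoding mCherry-linked ribozyme switches, or eGFP-linked ones in some ligand experiments, was transfected into HEK293T. Any ligand was added 1 h before transfection, and RNA was extracted with EDTA 72 h after it, then reverse-transcribed, amplified, barcoded and sequenced. RNA level was obtained by dividing RNA reads by DNA reads, normalizing to a spiked-in non-cleaving sequence or to the top sequences, then scaling and log-transforming. The top set was 25 sequences, scaling was ×100 with log10, and ≥100 DNA reads were required.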

cyclic di-GMP [2] = variants of: B1; test: normalized RNA/DNA level with ligand (relative to sTRSVctl = 100) (log10 (% of sTRSVctl)); HEK293T; ligand: cyclic di-GMP (c-di-GMP-II aptamer); ligand concentration (+) RNA-Seq: 1 mM; higher = less ribozyme self-cleavage, higher mRNA level; conditions: reporter: mCherry (pCS4076), ligand present: yes
Summary of the method: as §1

Variant | normalized RNA/DNA level without ligand (log10) (cyclic di-GMP [1]) | normalized RNA/DNA level with ligand (log10) (cyclic di-GMP [2])
GCCUGA | 1.6 ± 0.036 | 1.77 ± 0.069
GCCUGU | 1.69 ± 0.043 | 1.88 ± 0.12
GCCUGG | 1.78 ± 0.061 | 1.91 ± 0.09
CCCUCU | 1.62 ± 0.03 | 1.8 ± 0.12
CCCUCG | 1.75 ± 0.0059 | 1.91 ± 0.097
ACCUCA | 1.62 ± 0.027 | 1.77 ± 0.12
ACCUCU | 1.716 ± 0.0081 | 1.87 ± 0.1
ACCUCG | 1.73 ± 0.056 | 1.83 ± 0.15
CCCACU | 1.624 ± 0.014 | 1.83 ± 0.12
CCCACA | 1.57 ± 0.098 | 1.74 ± 0.05
CCCACG | 1.75 ± 0.018 | 1.87 ± 0.044
CCCACC | 1.728 ± 0.007 | 1.84 ± 0.097
GCCUUG | 1.576 ± 0.007 | 1.81 ± 0.1
GCCUUC | 1.61 ± 0.038 | 1.79 ± 0.099
GCCUUA | 1.657 ± 0.0086 | 1.82 ± 0.1
GCCUUU | 1.69 ± 0.051 | 1.88 ± 0.14
CCCCAA | 1.59 ± 0.018 | 1.76 ± 0.14
CCCCAG | 1.679 ± 0.008 | 1.82 ± 0.11
GCAUUU | 1.55 ± 0.037 | 1.74 ± 0.095
UCGAGG | 1.772 ± 0.011 | 1.87 ± 0.13

Variant | normalized RNA/DNA level without ligand (log10) (cyclic di-GMP [1]) | normalized RNA/DNA level with ligand (log10) (cyclic di-GMP [2])
CCCCGA | 1.6835 ± 0.00018 | 1.84 ± 0.13
CCCCGC | 1.77 ± 0.03 | 1.88 ± 0.11
CCCCGU | 1.76 ± 0.021 | 1.88 ± 0.14
CCCCGG | 1.83 ± 0.049 | 1.94 ± 0.11
UCCAGG | 1.81 ± 0.046 | 1.9 ± 0.14
UCCAGU | 1.63 ± 0.021 | 1.84 ± 0.11
CCCGAC | 1.7 ± 0.018 | 1.81 ± 0.14
CCCGAU | 1.64 ± 0.027 | 1.83 ± 0.12
CCCGAG | 1.56 ± 0.065 | 1.76 ± 0.11
ACCAUC | 1.68 ± 0.04 | 1.81 ± 0.13
ACCAUG | 1.61 ± 0.099 | 1.74 ± 0.057
ACCAUU | 1.56 ± 0.032 | 1.79 ± 0.1
CCCGGA | 1.48 ± 0.075 | 1.72 ± 0.13
CCCGGC | 1.75 ± 0.031 | 1.88 ± 0.07
CCCGGG | 1.7187 ± 0.00061 | 1.91 ± 0.14
GCCCAU | 1.67 ± 0.036 | 1.85 ± 0.15
GCCCAC | 1.656 ± 0.0072 | 1.82 ± 0.14
GCCCAG | 1.9 ± 0.036 | 1.97 ± 0.095
GCCCAA | 1.616 ± 0.011 | 1.77 ± 0.17
GCCUAG | 1.74 ± 0.068 | 1.86 ± 0.16

Variant | normalized RNA/DNA level without ligand (log10) (cyclic di-GMP [1]) | normalized RNA/DNA level with ligand (log10) (cyclic di-GMP [2])
GCCUAU | 1.662 ± 0.0027 | 1.85 ± 0.13
GCCUAA | 1.59 ± 0.071 | 1.78 ± 0.055
GCCUAC | 1.55 ± 0.059 | 1.72 ± 0.047
ACCGCA | 1.667 ± 0.015 | 1.8 ± 0.11
ACCGCU | 1.7 ± 0.028 | 1.86 ± 0.12
ACCGCG | 1.72 ± 0.075 | 1.87 ± 0.099
ACCGCC | 1.74 ± 0.057 | 1.89 ± 0.095
ACCUGU | 1.72 ± 0.063 | 1.84 ± 0.13
ACCUGC | 1.71 ± 0.029 | 1.85 ± 0.076
ACCUGG | 1.68 ± 0.081 | 1.88 ± 0.049
ACGACU | 1.51 ± 0.085 | 1.73 ± 0.14
ACGACG | 1.57 ± 0.058 | 1.74 ± 0.082
ACGACA | 1.52 ± 0.087 | 1.74 ± 0.085
GCCGAG | 1.65 ± 0.031 | 1.72 ± 0.091
ACCACA | 1.6 ± 0.019 | 1.76 ± 0.13
ACCACU | 1.61 ± 0.062 | 1.82 ± 0.087
ACCACG | 1.633 ± 0.01 | 1.81 ± 0.12
UCGACU | 1.6114 ± 7.1e-07 | 1.82 ± 0.12
